How the values were obtained:
[1] = substrate: N[C@@H](CCC(=O)N[C@H](CSc1ccc([N+](=O)[O-])cc1[N+](=O)[O-])C(=O)NCC(=O)O)C(=O)O; test: (§1) TP_TRANSPORTER: uptake in brush-border membrane vesicle from Caco-2 cells; type: functional, cell membranes
[2] = substrate: C[C@]12CC[C@@H]3c4ccc(O)cc4CC[C@H]3[C@@H]1CC[C@@H]2O[C@@H]1O[C@H](C(=O)O)[C@@H](O)[C@H](O)[C@H]1O; test: as §1; type: functional, cell membranes

B1: ATP-binding cassette sub-family C member 2 (Homo sapiens) (protein)
chain: MLEKFCNSTFWNSSFLDSPEADLPLCFEQTVLVWIPLGYLWLLAPWQLLHVYKSRTKRSSTTKLYLAKQVFVGFLLILAAIELALVLTEDSGQATVPAVRYTNPSLYLGTWLLVLLIQYSRQWCVQKNSWFLSLFWILSILCGTFQFQTLIRTLLQGDNSNLAYSCLFFISYGFQILILIFSAFSENNESSNNPSSIASFLSSITYSWYDSIILKGYKRPLTLEDVWEVDEEMKTKTLVSKFETHMKRELQKARRALQRRQEKSSQQNSGARLPGLNKNQSQSQDALVLEDVEKKKKKSGTKKDVPKSWLMKALFKTFYMVLLKSFLLKLVNDIFTFVSPQLLKLLISFASDRDTYLWIGYLCAILLFTAALIQSFCLQCYFQLCFKLGVKVRTAIMASVYKKALTLSNLARKEYTVGETVNLMSVDAQKLMDVTNFMHMLWSSVLQIVLSIFFLWRELGPSVLAGVGVMVLVIPINAILSTKSKTIQVKNMKNKDKRLKIMNEILSGIKILKYFAWEPSFRDQVQNLRKKELKNLLAFSQLQCVVIFVFQLTPVLVSVVTFSVYVLVDSNNILDAQKAFTSITLFNILRFPLSMLPMMISSMLQASVSTERLEKYLGGDDLDTSAIRHDCNFDKAMQFSEASFTWEHDSEATVRDVNLDIMAGQLVAVIGPVGSGKSSLISAMLGEMENVHGHITIKGTTAYVPQQSWIQNGTIKDNILFGTEFNEKRYQQVLEACALLPDLEMLPGGDLAEIGEKGINLSGGQKQRISLARATYQNLDIYLLDDPLSAVDAHVGKHIFNKVLGPNGLLKGKTRLLVTHSMHFLPQVDEIVVLGNGTIVEKGSYSALLAKKGEFAKNLKTFLRHTGPEEEATVHDGSEEEDDDYGLISSVEEIPEDAASITMRRENSFRRTLSRSSRSNGRHLKSLRNSLKTRNVNSLKEDEELVKGQKLIKKEFIETGKVKFSIYLEYLQAIGLFSIFFIILAFVMNSVAFIGSNLWLSAWTSDSKIFNSTDYPASQRDMRVGVYGALGLAQGIFVFIAHFWSAFGFVHASNILHKQLLNNILRAPMRFFDTTPTGRIVNRFAGDISTVDDTLPQSLRSWITCFLGIISTLVMICMATPVFTIIVIPLGIIYVSVQMFYVSTSRQLRRLDSVTRSPIYSHFSETVSGLPVIRAFEHQQRFLKHNEVRIDTNQKCVFSWITSNRWLAIRLELVGNLTVFFSALMMVIYRDTLSGDTVGFVLSNALNITQTLNWLVRMTSEIETNIVAVERITEYTKVENEAPWVTDKRPPPDWPSKGKIQFNNYQVRYRPELDLVLRGITCDIGSMEKIGVVGRTGAGKSSLTNCLFRILEAAGGQIIIDGVDIASIGLHDLREKLTIIPQDPILFSGSLRMNLDPFNNYSDEEIWKALELAHLKSFVASLQLGLSHEVTEAGGNLSIGQRQLLCLGRALLRKSKILVLDEATAAVDLETDNLIQTTIQNEFAHCTVITIAHRLHTIMDSDKVMVLDNGKIIECGSPEELLQIPGPFYFMAKEAGIENVNSTKF
**Q.** B1 was tested. Which Km [1] did it give?
**A.** 16.9 µM

**Q.** What about the Km [2] of the same protein?
**A.** 9.4 µM

Reference: ChEMBL document CHEMBL2074293, “Function and expression of multidrug resistance-associated protein family in human colon adenocarcinoma cells (Caco-2)” (J Pharmacol Exp Ther, 2000)
